From patent US20080227711A1 (LABORATOIRES SERONO, published 2008)

Key:
[1] = target: T1, CXCL8/IL-8 (UniProt P10145 28-99, limits assumed); assay: equilibrium competition receptor binding assay: inhibition of 0.1 nM 125I-IL-8 binding to CHO/CXCR1 cells
T1 construct: also called 125I-CXCL8/IL-8; 125I-IL-8
T1 sequence (looked up): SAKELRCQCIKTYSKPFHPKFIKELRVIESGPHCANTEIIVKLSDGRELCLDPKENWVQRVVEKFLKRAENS

[2] = target: T2, murine CXCL1/KC (murine, UniProt P12850 25-96); assay: SPR (Biacore 3000), Evasin-3 from E. coli immobilized on CM4 chip, Kd=kd/ka
T2 sequence: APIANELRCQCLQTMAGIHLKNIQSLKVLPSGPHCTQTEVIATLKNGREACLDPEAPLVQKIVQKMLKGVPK

[3] = target: T3, murine CXCL2/MIP-2 (murine, UniProt P10889 28-100); assay: as above
T3 sequence: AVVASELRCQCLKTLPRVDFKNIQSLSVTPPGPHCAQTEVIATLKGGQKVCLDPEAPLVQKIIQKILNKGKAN

[4] = target: T4, CXCL1/Gro-alpha (UniProt P09341 35-107); assay: as above
T4 construct: also called Gro-α; 125I-CXCL1/Gro-alpha
T4 sequence: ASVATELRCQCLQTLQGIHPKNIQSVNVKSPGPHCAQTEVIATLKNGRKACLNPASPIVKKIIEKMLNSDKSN

[5] = target: T1, CXCL8/IL-8; assay: as above
[6] = target: T2, murine CXCL1/KC; assay: SPR (Biacore 3000), Evasin-3 from E. coli immobilized on CM4 chip, chemokine injected, Langmuir global fit
[7] = target: T3, murine CXCL2/MIP-2; assay: as above
[8] = target: T4, CXCL1/Gro-alpha; assay: as above
[9] = target: T1, CXCL8/IL-8; assay: as above
[10] = target: T5, CX3CL1/Fractalkine (UniProt P78423 25-100); assay: SPR (Biacore 3000), Evasin-3 from E. coli immobilized on CM4 chip, chemokine injected
T5 sequence: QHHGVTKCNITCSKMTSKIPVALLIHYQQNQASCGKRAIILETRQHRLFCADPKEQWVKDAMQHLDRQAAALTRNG

[11] = target: T6, CCL2/MCP-1 (UniProt P13500 24-99); assay: as above
T6 construct: also called 125I-MCP-1

[12] = target: T7, CXCL12/SDF-1-alpha (UniProt P48061 22-89); assay: as above
T7 construct: also called SDF-1α

[13] = target: T8, CCL18/PARC (UniProt P55774 21-89); assay: as above
T8 sequence: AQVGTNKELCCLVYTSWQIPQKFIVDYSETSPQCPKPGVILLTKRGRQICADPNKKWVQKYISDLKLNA

[14] = target: T9, CCL5/RANTES (UniProt P13501 24-91); assay: as above
T9 construct: also called 125I-CCL5/RANTES
T9 sequence: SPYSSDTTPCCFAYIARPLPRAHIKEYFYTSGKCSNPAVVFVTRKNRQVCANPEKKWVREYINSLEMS

[15] = target: T10, CCL4/MIP-1-beta (UniProt P13236 24-92); assay: as above
T10 construct: also called MIP-1β
T10 sequence: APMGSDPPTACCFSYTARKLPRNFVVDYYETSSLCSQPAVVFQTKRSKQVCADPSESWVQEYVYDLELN

[16] = target: T11, CCL11/eotaxin (UniProt P51671 24-97); assay: as above
T11 construct: also called 125I-eotaxin

[17] = target: T12, CCL3/MIP-1-alpha (UniProt P10147 24-92); assay: as above
T12 construct: also called MIP-1α
T12 sequence: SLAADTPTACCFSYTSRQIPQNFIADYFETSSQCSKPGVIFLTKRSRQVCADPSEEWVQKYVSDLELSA

T7 sequence (P48061 22-89 limits assumed): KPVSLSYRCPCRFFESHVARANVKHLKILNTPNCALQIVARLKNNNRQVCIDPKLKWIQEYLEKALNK
T6 sequence (P13500 24-99 limits assumed): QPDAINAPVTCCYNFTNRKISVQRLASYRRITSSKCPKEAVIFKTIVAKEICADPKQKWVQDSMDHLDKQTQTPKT
T11 sequence (P51671 24-97 limits assumed): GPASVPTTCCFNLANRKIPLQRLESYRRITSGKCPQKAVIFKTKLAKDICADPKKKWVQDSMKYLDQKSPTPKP

B1: recombinant Evasin-3 produced in E. coli (Met-Evasin-3) (other)
chain: MLVSTIESRTSGDGADNFDVVSCNKNCTSGQNECPEGCFCGLLGQNKKGHCYKIIGNLSGEPPVVRR
notes: No tag, not glycosylated; also called mature Met-Evasin-3
Binder B1 has an IC50 [1] of 20 nM, a Kd [2] of 4.56 nM and a Kd [3] of 0.84 nM. For the same binder, the Kd [4] was 1.21 nM, the Kd [5] was 0.53 nM and the koff [6] was 0.00235 s⁻¹. It also gave a kon [6] of 514000 M⁻¹ s⁻¹, a koff [7] of 0.000878 s⁻¹ and a kon [7] of 1.05e+06 M⁻¹ s⁻¹. The koff [8] was 0.00269 s⁻¹, the kon [8] was 2.23e+06 M⁻¹ s⁻¹ and the koff [9] was 0.00032 s⁻¹. For the same binder, the kon [9] was 603000 M⁻¹ s⁻¹, the binding result [10] was “no binding (tested: 0.5 µg/ml chemokine)” and the binding result [11] was “no binding (tested: 0.5 µg/ml chemokine)”. B1: no binding (tested: 0.5 µg/ml chemokine) [12]; no binding (tested: 0.5 µg/ml chemokine) [13]; no binding (tested: 0.5 µg/ml chemokine) [14]. B1: no binding (tested: 0.5 µg/ml chemokine) [15]; no binding (tested: 0.5 µg/ml chemokine) [16]; no binding (tested: 0.5 µg/ml chemokine) [17].
